This is an account of results in PMC2680043, “Characterization of a Novel Small Molecule Subtype Specific Estrogen-Related Receptor α Antagonist in MCF-7 Breast Cancer Cells” (PLoS ONE, 2009).

Holding throughout (test): pull-down; biotinylated coactivator RID bound to streptavidin beaded agarose; in vitro translated [35S]-labeled ERRα added in 1x TBS with 10 µM Compound A, 4 hours at 4°C; SDS gel, phosphorimaging; compared with the DMSO sample
Conditions in all cases: one partner purified

The target of assay [1] is T1, PGC-1α receptor interaction domain (RID), aa 1-338, biotinylated (UniProt Q9UBK2 1-338, biotinylated (sites not given)).
T1 construct: also called PGC-1α RID; PPARGC1A
T1 sequence (looked up): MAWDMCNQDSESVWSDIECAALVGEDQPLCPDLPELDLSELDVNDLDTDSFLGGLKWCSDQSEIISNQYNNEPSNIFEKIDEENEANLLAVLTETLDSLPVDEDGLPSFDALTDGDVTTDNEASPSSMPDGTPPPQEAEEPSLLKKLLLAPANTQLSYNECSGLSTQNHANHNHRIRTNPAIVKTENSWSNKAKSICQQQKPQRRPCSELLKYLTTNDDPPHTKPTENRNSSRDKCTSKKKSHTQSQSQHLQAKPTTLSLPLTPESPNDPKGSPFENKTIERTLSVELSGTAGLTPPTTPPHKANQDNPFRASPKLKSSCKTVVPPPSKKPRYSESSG

Assay [2] has as its target T2, GRIP-1 receptor interaction domain (RID), aa 565-798, biotinylated (UniProt Q61026 565-798, biotinylated (sites not given)).
T2 construct: also called GRIP-1 RID; SRC-2
T2 sequence (looked up): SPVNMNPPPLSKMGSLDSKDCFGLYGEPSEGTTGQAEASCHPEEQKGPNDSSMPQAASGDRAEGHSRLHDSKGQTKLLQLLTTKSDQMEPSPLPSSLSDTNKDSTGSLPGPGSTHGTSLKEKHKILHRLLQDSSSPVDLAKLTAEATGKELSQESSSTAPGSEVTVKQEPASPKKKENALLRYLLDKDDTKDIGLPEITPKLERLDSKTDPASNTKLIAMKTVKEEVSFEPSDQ

Assay [3] addresses T3, AIB1 receptor interaction domain (RID), aa 557-773, biotinylated (UniProt Q9Y6Q9 557-773, biotinylated (sites not given)).
T3 construct: also called AIB1 RID; SRC-3
T3 sequence (looked up): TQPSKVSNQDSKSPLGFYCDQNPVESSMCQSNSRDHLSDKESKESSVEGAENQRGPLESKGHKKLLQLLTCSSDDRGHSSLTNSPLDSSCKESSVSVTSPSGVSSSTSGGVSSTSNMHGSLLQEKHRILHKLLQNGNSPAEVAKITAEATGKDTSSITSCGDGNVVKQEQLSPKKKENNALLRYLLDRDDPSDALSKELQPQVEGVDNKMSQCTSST

B1: full-length human estrogen-related receptor α (ERRα), [35S]methionine-labeled (receptor, UniProt P11474 1-423, looked up)
chain: MSSQVVGIEPLYIKAEPASPDSPKGSSETETEPPVALAPGPAPTRCLPGHKEEEDGEGAGPGEQGGGKLVLSSLPKRLCLVCGDVASGYHYGVASCEACKAFFKRTIQGSIEYSCPASNECEITKRRRKACQACRFTKCLRVGMLKEGVRLDRVRGGRQKYKRRPEVDPLPFPGPFPAGPLAVAGGPRKTAAPVNALVSHLLVVEPEKLYAMPDPAGPDGHLPAVATLCDLFDREIVVTISWAKSIPGFSSLSLSDQMSVLQSVWMEVLVLGVAQRSLPLQDELAFAEDLVLDEEGARAAGLGELGAALLQLVRRLQALRLEREEYVLLKALALANSDSVHIEDAEAVEQLREALHEALLEYEAGRAGPGGGAERRRAGRLLLTLPLLRQTAGKVLAHFYGVKLEGKVPMHKLFLEMLEAMMD
modifications: [35S]methionine label
notes: estrogen-related receptor alpha, human, full length, amplified from human brain Marathon-ready cDNA and cloned into pcDNA3.1(+); No tag is named for this construct; also called hERRα; ESRRA; source: in vitro translated (TnT coupled reticulocyte lysate system, Promega), [35S]methionine added
In the case of B1, the “percent reduction of the interaction with 10 µM Compound A against vehicle (DMSO)” value in assay [1] came out at 81%; in assay [2], 29%; in assay [3], 35%.
